Literature values in patent US20240424090A1, “COMPOSITIONS AND METHODS FOR USE IN IMMUNOTHERAPY” (INSTITUT CURIE, priority 2021, published 2024).

Tests used:
[1] = biological target: T1, FCGRIIA (Homo sapiens, UniProt P12318)
T1 sequence (P12318 34-317): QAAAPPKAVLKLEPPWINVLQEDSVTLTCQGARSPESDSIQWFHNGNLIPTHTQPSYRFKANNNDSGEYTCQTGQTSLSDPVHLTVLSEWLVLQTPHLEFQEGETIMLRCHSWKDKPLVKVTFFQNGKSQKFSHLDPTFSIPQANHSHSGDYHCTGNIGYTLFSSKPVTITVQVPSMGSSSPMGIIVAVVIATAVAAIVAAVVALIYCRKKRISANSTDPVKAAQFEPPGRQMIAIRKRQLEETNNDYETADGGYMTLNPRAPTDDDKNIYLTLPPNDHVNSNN

[2] = biological target: FCGRIIIA (Homo sapiens, UniProt P08637)
FCGRIIIA, sequence (P08637 17-254): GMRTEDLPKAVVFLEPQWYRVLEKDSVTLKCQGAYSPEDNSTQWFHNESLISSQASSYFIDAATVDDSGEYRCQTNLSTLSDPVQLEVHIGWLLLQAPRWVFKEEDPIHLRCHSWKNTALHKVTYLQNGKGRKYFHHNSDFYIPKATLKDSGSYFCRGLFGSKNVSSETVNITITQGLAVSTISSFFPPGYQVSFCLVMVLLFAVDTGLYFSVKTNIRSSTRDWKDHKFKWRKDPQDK

## Tremelimumab: IgG2 anti-CTLA-4 antibody
[1]
  binding to FCGRIIA: binds well
[2]
  binding to FCGRIIIA: not
